From paper PMC10651481, “m1A in CAG repeat RNA binds to TDP-43 and induces neurodegeneration”

Legend:
TDP-43-RRM = TDP-43-RRM (UniProt Q13148 104-262); assay: EMSA; EMSA: 10 mM HEPES pH 8.0, 50 mM KCl, 1 mM EDTA, 5% glycerol, 1 mM DTT, 40 U/ml RNase inhibitor, 4 C, 1 h; 20 fmol probe in 20 ul; 8% native PAGE; conditions: protein: recombinant
TDP-43 full-length [1] = molecular target: T1, TDP-43 full-length (UniProt Q13148 1-414); assay: as above; conditions: protein: recombinant, tags: MBP-6xHis (C-terminal as named TDP-43-MBP-6xHis)
T1 sequence (Q13148 whole entry): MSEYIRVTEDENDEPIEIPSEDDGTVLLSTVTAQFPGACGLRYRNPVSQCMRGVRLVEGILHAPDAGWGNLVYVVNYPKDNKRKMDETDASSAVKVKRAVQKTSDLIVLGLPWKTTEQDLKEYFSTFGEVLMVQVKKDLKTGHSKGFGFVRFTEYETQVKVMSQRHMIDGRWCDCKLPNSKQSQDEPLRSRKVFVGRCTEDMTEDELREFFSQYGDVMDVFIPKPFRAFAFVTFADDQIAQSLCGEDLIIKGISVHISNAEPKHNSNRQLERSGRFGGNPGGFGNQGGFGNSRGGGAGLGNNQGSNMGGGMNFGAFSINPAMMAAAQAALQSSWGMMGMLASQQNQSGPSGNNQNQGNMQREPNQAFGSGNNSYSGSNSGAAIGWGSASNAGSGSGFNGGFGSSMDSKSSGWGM

TDP-43 full-length [2] = molecular target: T1, TDP-43 full-length; assay: EMSA; separate experiment run beside 5FL; differs from 70 nM in 3d,e; EMSA: 10 mM HEPES pH 8.0, 50 mM KCl, 1 mM EDTA, 5% glycerol, 1 mM DTT, 40 U/ml RNase inhibitor, 4 C, 1 h; 20 fmol probe in 20 ul; 8% native PAGE; conditions: protein: recombinant; tags: MBP-6xHis (C-terminal as named TDP-43-MBP-6xHis); label: 5'-32P

TDP-43-RRM, sequence (Q13148 104-262): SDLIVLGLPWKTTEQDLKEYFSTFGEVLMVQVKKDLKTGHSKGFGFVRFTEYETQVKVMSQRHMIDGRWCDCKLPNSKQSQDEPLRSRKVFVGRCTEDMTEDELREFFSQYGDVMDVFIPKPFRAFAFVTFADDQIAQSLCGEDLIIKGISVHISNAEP

CAGCAGCAGCAGCAGCAGCAG (ssRNA) [(CAG)7-0m1A]
Kd (TDP-43-RRM; label: 5'-32P): 380 nM | Kd (TDP-43 full-length [1]; label: 5'-32P): 146 nM

CAGCAGCAGCAGCAGCAGCAG (ssRNA, m1A at position 11) [(CAG)7-1m1A]
Kd (TDP-43 full-length [2]): 13.1 nM | Kd (TDP-43-RRM; label: 5'-32P): 180 nM | Kd (TDP-43 full-length [1]; label: 5'-32P): 70 nM

CCGUUCCGCCCAGGCCGCGCCCAGCUGGAAUGCA (ssRNA) [Control RNA probe (rA)]
Kd (TDP-43-RRM; label: 5'-biotin, 3'-32P pCp): 73 nM | Kd (TDP-43 full-length [1]; label: 5'-biotin, 3'-32P pCp): 38 nM

CCGUUCCGCCCAGGCCGCGCCCAGCUGGAAUGCA (ssRNA, m1A at position 12) [m1A RNA probe]
Kd (TDP-43-RRM; label: 5'-biotin, 3'-32P pCp): 31 nM | Kd (TDP-43 full-length [1]; label: 5'-biotin, 3'-32P pCp): 18 nM

CCGUUCCGCCCAGGCCGCGCCCAGCUGGAAUGCA (ssRNA, m6A at position 12) [m6A RNA probe]
Kd (TDP-43-RRM; label: 5'-biotin, 3'-32P pCp): 81 nM | Kd (TDP-43 full-length [1]; label: 5'-biotin, 3'-32P pCp): 46 nM
